This assay deals with T1, ATG7 (analyte of the surface plasmon resonance assay) (UniProt Q9D906 1-698).
T1 construct: ATG7 used for surface plasmon resonance; Source of the protein may stand in the Supporting Information
T1 sequence (looked up): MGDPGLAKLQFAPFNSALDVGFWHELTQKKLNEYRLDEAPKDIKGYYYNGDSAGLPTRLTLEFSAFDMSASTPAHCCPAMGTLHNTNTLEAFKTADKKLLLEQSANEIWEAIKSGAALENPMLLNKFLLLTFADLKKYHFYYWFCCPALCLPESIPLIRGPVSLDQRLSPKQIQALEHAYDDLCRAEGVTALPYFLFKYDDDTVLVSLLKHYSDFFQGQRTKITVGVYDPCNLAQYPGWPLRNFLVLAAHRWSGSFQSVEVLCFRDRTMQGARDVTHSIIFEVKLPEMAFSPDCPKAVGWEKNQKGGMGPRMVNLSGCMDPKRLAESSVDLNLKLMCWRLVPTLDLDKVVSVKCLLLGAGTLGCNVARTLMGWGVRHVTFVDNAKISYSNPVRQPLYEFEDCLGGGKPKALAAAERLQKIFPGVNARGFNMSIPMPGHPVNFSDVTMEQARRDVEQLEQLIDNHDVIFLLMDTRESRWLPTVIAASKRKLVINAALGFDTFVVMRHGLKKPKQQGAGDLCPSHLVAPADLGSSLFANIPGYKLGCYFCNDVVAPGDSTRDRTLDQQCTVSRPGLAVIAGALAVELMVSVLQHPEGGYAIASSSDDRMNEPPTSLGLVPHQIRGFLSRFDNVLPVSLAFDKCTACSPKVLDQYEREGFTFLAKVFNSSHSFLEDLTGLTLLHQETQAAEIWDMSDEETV
In words: SPR; ATF3 immobilized on the CM5 sensor chip, ATG7 as analyte. To be noted: both partners purified. In general terms: In SPR one partner is held on a chip, and binding of the other changes the refractive index at the surface.

Kd data for 1 molecule are collected here from PMC12499416, “ATF3 Deficiency Exacerbates Ageing‐Induced Atherosclerosis and Clinical Intervention Strategy” (Advanced Science, 2025).

What is called Kd is the free concentration of one partner at which half of the binding sites on the other are occupied at equilibrium, for simple one-to-one binding.

B1: ATF3 immobilized on the CM5 sensor chip (natural protein)
chain: MMLQHPGQVSASEVSATAIVPCLSPPGSLVFEDFANLTPFVKEELRFAIQNKHLCHRMSSALESVTVNNRPLEMSVTKSEAAPEEDERKRRRRERNKIAAAKCRNKKKEKTECLQKESEKLESVNAELKAQIEELKNEKQHLIYMLNLHRPTCIVRAQNGRTPEDERNLFIQQIKEGTLQS
Molecule B1 showed a dissociation constant Kd of 963 nM.
